Data: the supplement of paper PMC3353916
± gives the standard deviation of the averaged measurements.

Test system: Sindbis virus TE/5'2J-GFP
Assay: percent infected (GFP+ in RFP+ ISG-expressing cells); higher = more infection (less antiviral activity)
Description: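 Confirmatory testing of 87 ISGs. Triplicate wells of BHK/HA-Zeo (control) or BHK/NZAP-Zeo (ZAP) cells were transduced with lentiviruses co-expressing a human ISG plus TagRFP, then infected 48 h later with SINV TE/5'2J-GFP (moi 5). The % GFP+ cells among RFP+ cells was measured by flow cytometry at 8 h post infection. Fluc lentivirus served as control. Three independent experiments.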

[1] = experiment: confirmatory screen 1, BHK/HA-Zeo (control)
[2] = experiment: confirmatory screen 1, BHK/NZAP-Zeo (ZAP)
[3] = experiment: confirmatory screen 2, BHK/HA-Zeo (control)
[4] = experiment: confirmatory screen 2, BHK/NZAP-Zeo (ZAP)
[5] = experiment: confirmatory screen 3, BHK/HA-Zeo (control)
[6] = experiment: confirmatory screen 3, BHK/NZAP-Zeo (ZAP)
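Note: Interferon-defective BHK-21 derivatives, ZAP line overexpressing the rat ZAP N-terminal zinc finger domain fused to Zeocin resistance, GFP scored within live singlet TagRFP+ cells.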

Sequence: MMFRDQVGVLAGWFKGWNECEQTVALLSLLKRVSQTQARFLQLCLEHSLADCAELHVLEREANSPGIINQWQQESKDKVISLLLTHLPLLKPGNLDAKVEYMKLLPKILAHSIEHNQHIEESRQLLSYALIHPATSLEDRSALAMWLNHLEDRTSTSFGGQNRGRSDSVDYGQTHYYHQRQNSDDKLNGWQNSRDSGICINASNWQDKSMGCENGHVPLYSSSSVPTTINTIGTSTSTILSGQAHHSPLKRSVSLTPPMNVPNQPLGHGWMSHEDLRARGPQCLPSDHAPLSPQSSVASSGSGGSEHLEDQTTARNTFQEEGSGMKDVPAWLKSLRLHKYAALFSQMTYEEMMALTECQLEAQNVTKGARHKIVISIQKLKERQNLLKSLERDIIEGGSLRIPLQELHQMILTPIKAYSSPSTTPEARRREPQAPRQPSLMGPESQSPDCKDGAAATGATATPSAGASGGLQPHQLSSCDGELAVAPLPEGDLPGQFTRVMGKVCTQLLVSRPDEENISSYLQLIDKCLIHEAFTETQKKRLLSWKQQVQKLFRSFPRKTLLDISGYRQQRNRGFGQSNSLPTAGSVGGGMGRRNPRQYQIPSRNVPSARLGLLGTSGFVSSNQRNTTATPTIMKQGRQNLWFANPGGSNSMPSRTHSSVQRTRSLPVHTSPQNMLMFQQPEFQLPVTEPDINNRLESLCLSMTEHALGDGVDRTSTI [SAMD4A]
- percent infected [1]: 80.4 ± 0.93%
- percent infected [2]: 12.5 ± 0.52%
- percent infected [3]: 92.98 ± 0.71%
- percent infected [4]: 93.39 ± 0.29%
- percent infected [5]: 83.1 ± 1.3%
- percent infected [6]: 84.55 ± 0.77%

Sequence: MNMTQARVLVAAVVGLVAVLLYASIHKIEEGHLAVYYRGGALLTSPSGPGYHIMLPFITTFRSVQTTLQTDEVKNVPCGTSGGVMIYIDRIEVVNMLAPYAVFDIVRNYTADYDKTLIFNKIHHELNQFCSAHTLQEVYIELFDQIDENLKQALQKDLNLMAPGLTIQAVRVTKPKIPEAIRRNFELMEAEKTKLLIAAQKQKVVEKEAETERKKAVIEAEKIAQVAKIRFQQKVMEKETEKRISEIEDAAFLAREKAKADAEYYAAHKYATSNKHKLTPEYLELKKYQAIASNSKIYFGSNIPNMFVDSSCALKYSDIRTGRESSLPSKEALEPSGENVIQNKESTG [ERLIN1]
- percent infected [1]: 94.6 ± 1.8%
- percent infected [2]: 79.2 ± 1.4%
- percent infected [3]: 95.84 ± 0.41%
- percent infected [4]: 94.53 ± 0.57%
- percent infected [5]: 91.74 ± 0.47%
- percent infected [6]: 91.63 ± 0.7%

Sequence: MNTIVFNKLSGAVLFEDGGASERERGGRPYSGVLDSPHARPEVGIPDGPPLKDNLGLRHRRTGARQNGGKVRHKRQALQDMARPLKQWLYKHRDNPYPTKTEKILLALGSQMTLVQVSNWFANARRRLKNTVRQPDLSWALRIKLYNKYVQGNAERLSVSSDDSCSEDGENPPRTHMNEGGYNTPVHHPVIKSENSVIKAGVRPESRASEDYVAPPKYKSSLLNRYLNDSLRHVMATNTTMMGKTRQRNHSGSFSSNEFEEELVSPSSSETEGNFVYRTDTLENGSNKGESAANRKGPSKDDTYWKEINAAMALTNLAQGKDKLQGTTSCIIQKSSHIAEVKTVKVPLVQQF [MKX]
- percent infected [1]: 95 ± 2.1%
- percent infected [2]: 82.42 ± 0.67%
- percent infected [3]: 95.17 ± 0.2%
- percent infected [4]: 92.86 ± 0.56%
- percent infected [5]: 79 ± 1.7%
- percent infected [6]: 86.15 ± 0.099%

Sequence: MNTRNRVVNSGLGASPASRPTRDPQDPSGRQGELSPVEDQREGLEAAPKGPSRESVVHAGQRRTSAYTLIAPNINRRNEIQRIAEQELANLEKWKEQNRAKPVHLVPRRLGGSQSETEVRQKQQLQLMQSKYKQKLKREESVRIKKEAEEAELQKMKAIQREKSNKLEEKKRLQENLRREAFREHQQYKTAEFLSKLNTESPDRSACQSAVCGPQSSTWKLPILPRDHSWARSWAYRDSLKAEENRKLQKMKDEQHQKSELLELKRQQQEQERAKIHQTEHRRVNNAFLDRLQGKSQPGGLEQSGGCWNMNSGNSWGI [EPSTI1]
- percent infected [1]: 96.8 ± 1.1%
- percent infected [2]: 68.2 ± 2.1%
- percent infected [3]: 96.8 ± 1.1%
- percent infected [4]: 95.946 ± 0.041%
- percent infected [5]: 94.88 ± 0.77%
- percent infected [6]: 94.41 ± 0.1%

Sequence: MPGKKARKNAQPSPARAPAELEVECATQLRRFGDKLNFRQKLLNLISKLFCSGT [PMAIP1]
- percent infected [1]: 94.9 ± 1.1%
- percent infected [2]: 87.9 ± 2.1%
- percent infected [3]: 95.11 ± 0.24%
- percent infected [4]: 93.22 ± 0.27%
- percent infected [5]: 92.03 ± 0.31%
- percent infected [6]: 92.36 ± 0.16%

Sequence: MPITRMRMRPWLEMQINSNQIPGLIWINKEEMIFQIPWKHAAKHGWDINKDACLFRSWAIHTGRYKAGEKEPDPKTWKANFRCAMNSLPDIEEVKDQSRNKGSSAVRVYRMLPPLTKNQRKERKSKSSRDAKSKAKRKSCGDSSPDTFSDGLSSSTLPDDHSSYTVPGYMQDLEVEQALTPALSPCAVSSTLPDWHIPVEVVPDSTSDLYNFQVSPMPSTSEATTDEDEEGKLPEDIMKLLEQSEWQPTNVDGKGYLLNEPGVQPTSVYGDFSCKEEPEIDSPGGDIGLSLQRVFTDLKNMDATWLDSLLTPVRLPSIQAIPCAP [IRF1]
- percent infected [1]: 67.2 ± 42%
- percent infected [2]: 10.7 ± 6.3%
- percent infected [3]: 61.6 ± 1.6%
- percent infected [4]: 1.14 ± 0.73%
- percent infected [5]: 29.2 ± 22%
- percent infected [6]: 0.16 ± 0.079%

Sequence: MPRQLSAAAALFASLAVILHDGSQMRAKAFPETRDYSQPTAAATVQDIKKPVQQPAKQAPHQTLAARFMDGHITFQTAATVKIPTTTPATTKNTATTSPITYTLVTTQATPNNSHTAPPVTEVTVGPSLAPYSLPPTITPPAHTTGTSSSTVSHTTGNTTQPSNQTTLPATLSIALHKSTTGQKPVQPTHAPGTTAAAHNTTRTAAPASTVPGPTLAPQPSSVKTGIYQVLNGSRLCIKAEMGIQLIVQDKESVFSPRRYFNIDPNATQASGNCGTRKSNLLLNFQGGFVNLTFTKDEESYYISEVGAYLTVSDPETIYQGIKHAVVMFQTAVGHSFKCVSEQSLQLSAHLQVKTTDVQLQAFDFEDDHFGNVDECSSDYTIVLPVIGAIVVGLCLMGMGVYKIRLRCQSSGYQRI [LAMP3]
- percent infected [1]: 95.8 ± 1.7%
- percent infected [2]: 52.1 ± 5.6%
- percent infected [3]: 97.55 ± 0.14%
- percent infected [4]: 96.16 ± 0.23%
- percent infected [5]: 86.4 ± 2.6%
- percent infected [6]: 89.93 ± 0.19%

Sequence: MPSLWDRFSSSSTSSSPSSLPRTPTPDRPPRSAWGSATREEGFDRSTSLESSDCESLDSSNSGFGPEEDTAYLDGVSLPDFELLSDPEDEHLCANLMQLLQESLAQARLGSRRPARLLMPSQLVSQVGKELLRLAYSEPCGLRGALLDVCVEQGKSCHSVGQLALDPSLVPTFQLTLVLRLDSRLWPKIQGLFSSANSPFLPGFSQSLTLSTGFRVIKKKLYSSEQLLIEEC [DDIT4]
- percent infected [1]: 95.2 ± 1.2%
- percent infected [2]: 76.2 ± 2.5%
- percent infected [3]: 96.4 ± 0.11%
- percent infected [4]: 94.99 ± 0.17%
- percent infected [5]: 94.1 ± 0.29%
- percent infected [6]: 92.99 ± 0.24%

Sequence: MPVERMRMRPWLEEQINSNTIPGLKWLNKEKKIFQIPWMHAARHGWDVEKDAPLFRNWAIHTGKHQPGVDKPDPKTWKANFRCAMNSLPDIEEVKDKSIKKGNNAFRVYRMLPLSERPSKKGKKPKTEKEDKVKHIKQEPVESSLGLSNGVSDLSPEYAVLTSTIKNEVDSTVNIIVVGQSHLDSNIENQEIVTNPPDICQVVEVTTESDEQPVSMSELYPLQISPVSSYAESETTDSVPSDEESAEGRPHWRKRNIEGKQYLSNMGTRGSYLLPGMASFVTSNKPDLQVTIKEESNPVPYNSSWPPFQDLPLSSSMTPASSSSRPDRETRASVIKKTSDITQARVKSC [IRF2]
- percent infected [1]: 81 ± 3.7%
- percent infected [2]: 2.58 ± 0.4%
- percent infected [3]: 94.34 ± 0.74%
- percent infected [4]: 60.4 ± 1.6%
- percent infected [5]: 89.4 ± 1.2%
- percent infected [6]: 39.2 ± 2.8%

Sequence: MQEGELAISPISPVAAMPPLGTHVQARCEAQINLLGEGGICKLPGRLRIQPALWSREDVLHWLRWAEQEYSLPCTAEHGFEMNGRALCILTKDDFRHRAPSSGDVLYELLQYIKTQRRALVCGPFFGGIFRLKTPTQHSPVPPEEVTGPSQMDTRRGHLLQPPDPGLTSNFGHLDDPGLARWTPGKEESLNLCHCAELGCRTQGVCSFPAMPQAPIDGRIADCRLLWDYVYQLLLDTRYEPYIKWEDKDAKIFRVVDPNGLARLWGNHKNRVNMTYEKMSRALRHYYKLNIIKKEPGQKLLFRFLKTPGKMVQDKHSHLEPLESQEQDRIEFKDKRPEISP [ETV7]
- percent infected [1]: 95.31 ± 0.45%
- percent infected [2]: 67.2 ± 4%
- percent infected [3]: 95.82 ± 0.54%
- percent infected [4]: 95.28 ± 0.2%
- percent infected [5]: 93 ± 1.6%
- percent infected [6]: 93.56 ± 0.55%
